Source: patent publication US20240254192A1

Columns and labels:
[1] = molecular target: tBCMA [BCMA extracellular domain - PDL1 hinge & TM plus Trop2 cytoplasmic domain]; test: cell-based or functional assay
[2] = molecular target: CD30 expressed on primary T cells transduced with BCL6 and BCL2L1 (Homo sapiens (Human)) (UniProt P28908); test: cell-based or functional assay
Chain of CD30 expressed on primary T cells transduced with BCL6 and BCL2L1 (Homo sapiens (Human)) (P28908 19-595 limits assumed): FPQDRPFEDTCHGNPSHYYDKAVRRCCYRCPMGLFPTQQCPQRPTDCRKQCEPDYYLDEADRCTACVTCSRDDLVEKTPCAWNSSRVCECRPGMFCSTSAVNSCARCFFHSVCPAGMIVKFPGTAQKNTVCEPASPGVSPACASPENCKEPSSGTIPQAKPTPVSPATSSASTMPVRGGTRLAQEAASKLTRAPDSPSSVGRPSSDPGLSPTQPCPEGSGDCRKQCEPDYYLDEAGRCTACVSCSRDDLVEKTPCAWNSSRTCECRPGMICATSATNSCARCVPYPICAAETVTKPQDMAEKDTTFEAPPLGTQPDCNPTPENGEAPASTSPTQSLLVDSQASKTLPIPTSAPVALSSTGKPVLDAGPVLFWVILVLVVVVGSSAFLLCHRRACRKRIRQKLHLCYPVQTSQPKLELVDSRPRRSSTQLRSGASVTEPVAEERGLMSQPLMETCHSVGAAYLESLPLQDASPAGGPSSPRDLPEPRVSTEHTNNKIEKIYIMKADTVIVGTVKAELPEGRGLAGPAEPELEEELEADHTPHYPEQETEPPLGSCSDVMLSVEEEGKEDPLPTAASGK

Chain of tBCMA [BCMA extracellular domain - PDL1 hinge & TM plus Trop2 cytoplasmic domain] (chain, as listed by the source limits assumed, form in doubt): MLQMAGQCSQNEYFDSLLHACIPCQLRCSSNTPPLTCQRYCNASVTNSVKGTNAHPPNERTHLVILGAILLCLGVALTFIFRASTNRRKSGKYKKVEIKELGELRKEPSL

Substance | percent change in live cell number (day 2) [1] | percent change in live cell number [2]
belantamab mafodotin (antibody) | < 80% | 
brentuximab vedotin (antibody) |  | < 95%
